From a protein production outcome set (Wang et al. 2014)

Assay: label from the status in PepcDB records

MTDLELQQLTQRIAQESFGKSFPYKVVFNQRLKTTGGRYHLNDHHIDINPLMLEEFDEATLIGVIKHELVHYFVHMLNEKPDHRNPHFQQLLRAVGGLRYAPTTSKRRRTPPKLLYQCQGCGLQYPRQRRINTRKYVCSKCRGRLKLL
protein production: failed

MKYTVYLFDFDYTLADSSRGIVTCFRSVLERHGYTGITDDMIKRTIGKTLEESFSILTGITDADQLESFRQEYSKEADIYMNANTILFPDTLPTLTHLKKQGIRIGIISTKYRFRILSFLRNHMPDDWFDIIIGGEDVTHHKPDPEGLLLAIDRLKACPEEVLYIGDSTVDAGTAAAAGVSFTGVTSGMTTAQEFQAYPYDRIISTLGQLISVPEDKSGCPL
protein production: not failed

NDAIPTIFIHGYRGTDRSLHGMIRRFDQKYNWGTESLTVNVSPDGSISTTGTYSKNEKNPLINIVFEDNRATLPQQSMWTKKIMSYLQKNYDIKKFNAIGHSMGGGAWVSYLASYEKNKSYPQVNKIVFLAVPFYPEEYVNGDQQVDIKNANNVHAKFAQKMAKVLPDNTEIMIIGGDLEDGSNSDGEVKLNSVLYGQKLFAHQKVITHVIKGPKATHSSMHESTVVDKYVGQFLWGQK
protein production: failed

MVHGLDRRLGLAGRIRPDALVADRCGTLIMLAGERFYRLDPMSGRLERIPCLGGRGDRAGELSGPRAMALGSRNLYVADTDNNRVCVFATVNWQVRRFIGAENPAGEPAAGTGPGEFDRPLDLAVDPCDNLYVLDAGNRRIQRFDYHGEPVPHVPPFGADRLKQPVALALGPAPSPSGGGALVHCLDTGLTAIVTFDDQGRFLGTVGLDDLGFEPAGLAVDADGKWYVSDRERFIYAIRSAGDWSPLEEYEGKALRLFAGPGGEFYALEDGEVARLTRRRRYPPAGSWTGSGPVTGIYTSRSFDTGDGRLFWHRVTLDATVPPKTQVRLSYFIYETGRDPELLPADGEWRSFPSNPADALFERKEGRYLRVRLELISEDRHATPTVVSLRLQFPKQSYLRYLPAVFQDDERGRDFLERFLSLFESVLYDLEREIFTTRRYADPCAVPAGFLPWLASWLALPDADQWLEDGGARLRTLIARANELYRCRGTRGGLAELITLYTGKEPWIVEAFQLDRIRGRSEWRETMRLFGEDPYHFTVLLPPGGAGRTETVKRIVARERPAHTCATVVALENLFRLGGHTYLEVNTNLNQPLFALETSSSLARQTYLADGEKAGQAQVRARQGMDTLFE
protein production: failed

MPEWAAFVGLTGFLLTALLGLARLSQGAVRSDGGVSSTVDGVSMADRDPTIPRFETQRAAAQRQQMRDTLAPSDVSTGALLANVAFTQGLFGVLLVAGAFYFEIPASAFGVTSDALSTGLPAVAIGIGAGIGFWVGNEGAAALADGFGVTFDESLRELLAPDSPGGWVILLGGVLPVIAIVEELLFRAAAIGVPVAGLNAPAWAMAIVASVAFALGHGAQGRVGIVVTGTLGLALAGLFIATNSLLAVVVAHYLVNALELLVHEGLGVDRLWA
protein production: failed

MNLVQDKVTIITGGTRGIGFAAAKIFIDNGAKVSIFGETQEEVDTALAQLKELYPEEEVLGFAPDLTSRDAVMAAVGQVAQKYGRLDVMINNAGITSNNVFSRVSEEEFKHIMDINVTGVFNGAWCAYQCMKDAKKGVIINTASVTGIFGSLSGVGYPASKASVIGLTHGLGREIIRKNIRVVGVAPGVVNTDMTNGNPPEIMEGYLKALPMKRMLEPEEIANVYLFLASDLASGITATTVSVDGAYRP
protein production: not failed

KLHYKQIVWVKLGNYRWWPAEICNPRSVPLNIQGLKHDLGDFPVFFFGSHDYYWVHQGRVFPYVEGDKSFAEGQTSINKTFKKALEEAAKRFQELKA
protein production: not failed

MRRILGPVLAAHYLAAFTALGMPLFLPQVLAELAPSAAVGWSGVLYVLPTLCTALTASTWGRWADRNGRKRSLLRAQLGLALGFAIAGFAPSLTWLVIGLIVQGTCGGSLAAANAYLASQPQAGPLARALDWTQYSARLAMVSAPALLGLALALGPAQSLYRALALLPLIAFALTWRLPADQPAAREPAAGTPATSLKHAASSPASPRTVAATSWPALLLAQFLFCFAMVVTFPYFIPYALARGAGHDALAGLLYSLPHLVYLVVLPWWRRGDGEAWLVPGLALFAAACVWQALLHDALALAAARLLFGFGMLFGLRGLNRSLAHIASGHSAGRLFGRFDACGKWAGVFAGAAAGALAQASGPATPFLAAALAAAAAALTVLVRFPSRRTADVAAHDA
protein production: failed

MSAALPSIQLPVDYNNLFNEITDFLVTFKQDTLSSDATRNENEDENLDAENIEQHLLEKGPKYMAMLQKVANRELNSVIIDLDDILQYQNEKFLQGTQADDLVSAIQQNANHFTELFCRAIDNNMPLPTKEIDYKDDVLDVILNQRRLRNERMLSDRTNEIRSENLMDTTMDPPSSMNDALREVVEDETELFPPNLTRRYFLYFKPLSQNCARRYRKKAISSKPLSVRQIKGDFLGQLITVRGIITRVSDVKPAVEVIAYTCDQCGYEVFQEVNSRTFTPLSECTSEECSQNQTKGQLFMSTRASKFSAFQECKIQELSQQVPVGHIPRSLNIHVNGTLVRSLSPGDIVDVTGIFLPAPYTGFKALKAGLLTETYLEAQFVRQHKKKFASFSLTSDVEERVMELITSGDVYNRLAKSIAPEIYGNLDVKKALLLLLVGGVDKRVGDGMKIRGDINVCLMGDPGVAKSQLLKAICKISPRGVYTTGKGSSGVGLTAAVMKDPVTDEMILEGGALVLADNGICCIDEFDKMDESDRTAIHEVMEQQTISISKAVINTNPGARTSILAAANPLYGRINPRLSPLDNINLPAALLSRFDILFLMLDIPSRDDDEKLAEHVTYVHMHNKQPDLDFTPVEPSKMREYIAYAKTKRPVMSEAVNDYVVQAYIRLRQDSKREMDSKFSFGQATPRTLLGIIRLSQALAKLRLADMVDIDDVEEALRLVRVSKESLYQETNKSKEDESPTTKIFTIIKKMLQETGKNTLSYENIVKTVRLRGFTMLQLSNCIQEYSYLNVWHLINEGNTLKFVDDGTMDTDQEDSLVSTPKLAPQTTASANVSAQDSDIDLQDA
protein production: failed

MVIPSILEQAHALAGRAVGEGGIAVDATVGNGHDTAFLAQAVGAGGAVVGFDVQEEALVETRHRLEREALSAPVRLVHAGHQTLARHLEEAERGRVGAIMFNLGYLPGGDHSVVTRPETTRQALDAGTEALRPGGVITVVAYTGHEGGDEEADAVEAWASALPQAQFRALSYRFPNWSNDPPRLFAVEKRDALEHHHHHH
protein production: failed

MIMLNKQGITISLCMIVRDEEETIARCLETVEKIVDEIIVVDTGSVDRTKEIVEKYTSNIYDFQWIDDFAAARNFSFSKATQEYILWLDADDVLLEDAQEALKLLKRELDPKIDAVSMPYHLAMDSNGKPLYCTKRNRLVKREKQFQWFGKVHEYLAISGEVFSSNVAITHKKEKKVTNRNLKIFQNTVAAGEELSPRDLFYYANESTDNQKYDDAVLLYETFLNQDEGWYEEKIYACGKLGDCYAKLGMWEKAIESCVKSFRYDVPRGENCTRIGYIYMEQEKYNEAIFWFKLATEVPMATESPFHSPASYTWLPYLQMCICYSRLGEQDKAYYYNELAASYVPNNAAIEYNRKYFRGVFDKPYKVLEHHHHHH
protein production: failed

QSGMKAELLDHGTAPVPSELAEYFPQVPEVALYHRLRCDEKTGEPTNHARNYVRPELAGRIDLDDLARWPMTKVLRDVVGMDISRITDTVEARLADPETARLLEVPLLSPILHYTGITYDLEGRVLDVAVIHYRGDRFSFTVTLDAT
protein production: failed

MIKEQSFEWLLEGCHRIADVAVAYYPNYAYACSAVKALRRSIAEHACLLKDLTDQGYTARTAHLTPVQIGILLSYWGMPDHVKDMTVKNPYLLVSKKYAK
protein production: failed

YENFIIAGHKEPDGDCIGSCLAMSFFLKRKNKNCILMSAGPFKRTEIKEYEHLFTDKLKISDKINPKTTGLIILDCSNFDRVGEIAELISGFNYIIIDHHATNTEKSDTSLIMPEAPSTTYLIQSIIEEIGEKLTKEEADALFFGLCTDTGFFRHLDAGSAEVFAHASRLIEAG
protein production: failed

MGTVHARSLDPLPMNGPDFGSPDDADLVEVEPQKKQEILENKDVVVQRVHFEGLGRTKDDLVAHEIGQVFKAKNLIEVMRKSHEAREKLLRLGVFRNVEVLIDTCEGEDAVPNGLDVTFEVTELRRVTGSYNTMVGNNEGSMVLGLKLPNLFGRAEKMTFQFSYGTKETSYGLSFFKPQVGNFERNFSVNLYKVTGQFPWSSLRETDRGVSAEINFPIWKTSHTLKWEGVWRELGCLARTASFTIREESGHTLKSSLSHSMVIDSRNASILPKSGALLKINQELAGYTGGDVSFLKEDFELQLNRQLTWDSVLSTSLWGGMLVPIGDRPSSIADRFYLGGPTSVRGFSMYSIGPQSEGDYLGGEAYWAGGVHLYTPLPFRPGRGGFGDLFRTHFFLNAGNLCNLNYGEGPGAHLRRLAECIRWSYGAGLVLRLGNIARLELNYCIPMGVQSGDRICDGVQFGAGIRFL
protein production: failed

MRRGLVIVGHGSQLNHYREVMELHRKRIEESGAFDEVKIAFAARKRRPMPDEAIREMNCDIIYVVPLFISYGLHVTEDLPDLLGFPRGRGIKEGEFEGKKVVICEPIGEDYFVTYAILNSVFRIGRDGKGEE
protein production: not failed

MSKAKAPINTDELKQKYGRVYEIRIEGLEYENGEEAEFVFYFTRPKVSDISRFTKELNSKPDMAMKNLTFSCIVPEQEEELRQAAEEFPGLTFNTASRLMEIVGASAATSLKKL
protein production: not failed

MRLGRIASPDGVAFVSIEGELDNPAEMIAREIAEHPFGTPNFTGRSWPLADVRLLAPILASKVVCVGKNYADHIAEMGEATGPVPADPVIFLKPNTAIIGPNVPIRLPANASPVHFEGELAVVIGRPCKDVSAAQAAENILGYTIGNDVSARDQQRSDGQWTRAKGHDTFCPVGPWIVTDLNPLDPGDLELRTEVNGEVKQRSRTSLLIHDIGSIVEWISAVMTLLPGDLILTGTPAGVGPIEDGDTVSITIEGIGTLTNPVVRKGKS
protein production: failed

MERRTILVTGASGFVGGALCRQLATLGSFAIRAASRDLGGASVAGIQAVTVADLSATTDWARALSGVDLVVHAAARVHVMKETASDSLAEFRRVNVDGTLNLARQAAAAGVRRFIFISSIKVNGESSQPGQPLRADDSPAPQDAYGVSKHEAEQGLRQLAAATGMEVVVIRPVLVYGPGVKANFHSMMRWLQRGVPLPFGAVCNRRSLVSLANLVDLVVTCIDHPRAANQTFLASDGDDVSLTQLLRALGLALGRPARLLPVPAGLLRGAVLLIGRRDLAQRLFGTLQVDIEKNRQLLGWYPPCTLEQGLNMTARSFLGARRP
protein production: failed

MLRSSAAAGKGGRILAAKQVNPTRMELTRLKKKRITAIRGHKLLKDKRDELMRQYLDLVRENMEVRKKVEAGIRSANKNFVIAKAGMSEAALNTALMAPKQEVNLEAGEKNVMSVDIPTFQYKTRTADENDIYSYGFAFTSGDLDGAVKSLADVLPDMIRLAECEKACQLMAAEIEKTRRRVNALEHVIIPETEQSIKYITMKLDENERSTQIRLMKVKDMMLEETHHYSEK
protein production: failed

RPHVVKVYSEDGACRSVEVAAGATARHVCEMLVQRAHALSDETWGLVECHPHLALERGLEDHESVVEVQAAWPVGGDSRFVFRKNFA
protein production: not failed

MCAEFVERRLAAILAADVVGYSRLLEANEEETLNALRQHRRELFDPAVAIHGGHIIKVMGDGFLVEFGSVLSAARCAVEIQRGMLERNIGIPGDRHFAFRIGLNLGDIVFDEDDFHGDGINVAVRLQALAAPGGIACSAAVRHEVANKLDLGFADQGAMTVKNISRPVHVYFADWGNAPSSEEVPLTAGGHTRAPVNKPSVAVLPFANISNDPEQDFFSDGITEDLITDLSNVSGLFVLSRNTVFTWKGRSENLQRIAAELGVAYIVEGSVRKAGNQVRINAELIEAASDGHVWAARYDRDLTDIFEMQDEIVKAIVGQLKVKLLPEEKRAIEQAPTESVEAYTHFLRGREYYHIASRSNHLMARQSFARAIELDPGYARAYAGIAVCDARLRSQFGAEIPVEDILANTATALVIDPNLAEAYAAKGFALAVAGNRTEAVSAFAQALSLDANCHEANRYYAEFCVTEGQFELAATHFQRAMEIKPADYGAPIMLVNVLRSLGQIDKASSYARIALKRAEEELRLHPENANVACLGATALAFLGVRDTALEWLARSLATDPDDINIQYNAACTYALLGEIDRAIDLLEVWMPQVGIEMRLWFKNDSDLDPIRSHPRYLKLVSLSE
protein production: failed
